# Reference: patent US20010021505A1
# Assays:
# [1] = target: NPM/ALK fusion protein (human); assay: co-immunoprecipitation with anti-ALK serum, immunoblot, SUP-M2 lysates
# [2] = target: wild-type NPM (nucleophosmin) (human) (UniProt P06748); assay: co-immunoprecipitation, anti-NPM immunoblot
# [3] = target: 85 kDa subunit of phosphatidylinositol 3-kinase (PI3-K) (human) (UniProt P27986); assay: co-immunoprecipitation, immunoblot, SUP-M2 lysates
# [4] = target: T1, Src homologous and collagen (SHC) protein (human) (UniProt P29353); assay: co-immunoprecipitation, immunoblot, SUP-M2 lysates
# T1 sequence (tyrosine-phosphorylated (sites not given), looked up): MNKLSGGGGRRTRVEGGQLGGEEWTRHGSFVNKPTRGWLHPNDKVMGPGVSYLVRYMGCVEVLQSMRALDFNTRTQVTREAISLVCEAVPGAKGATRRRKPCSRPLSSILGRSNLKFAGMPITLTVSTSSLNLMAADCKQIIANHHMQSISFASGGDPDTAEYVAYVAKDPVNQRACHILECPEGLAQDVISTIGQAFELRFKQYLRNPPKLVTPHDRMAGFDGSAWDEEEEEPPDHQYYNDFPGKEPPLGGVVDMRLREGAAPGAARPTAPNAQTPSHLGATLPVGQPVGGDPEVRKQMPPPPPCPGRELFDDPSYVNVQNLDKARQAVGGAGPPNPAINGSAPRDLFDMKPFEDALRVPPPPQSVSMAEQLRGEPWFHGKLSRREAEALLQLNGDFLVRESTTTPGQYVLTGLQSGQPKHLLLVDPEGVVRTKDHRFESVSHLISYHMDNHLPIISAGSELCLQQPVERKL
# [5] = target: phospholipase-Cγ (PLC-γ) (human) (UniProt P19174); assay: co-immunoprecipitation, immunoblot, SUP-M2 lysates
# Chain of UniProt P19174 (P19174 2-1290): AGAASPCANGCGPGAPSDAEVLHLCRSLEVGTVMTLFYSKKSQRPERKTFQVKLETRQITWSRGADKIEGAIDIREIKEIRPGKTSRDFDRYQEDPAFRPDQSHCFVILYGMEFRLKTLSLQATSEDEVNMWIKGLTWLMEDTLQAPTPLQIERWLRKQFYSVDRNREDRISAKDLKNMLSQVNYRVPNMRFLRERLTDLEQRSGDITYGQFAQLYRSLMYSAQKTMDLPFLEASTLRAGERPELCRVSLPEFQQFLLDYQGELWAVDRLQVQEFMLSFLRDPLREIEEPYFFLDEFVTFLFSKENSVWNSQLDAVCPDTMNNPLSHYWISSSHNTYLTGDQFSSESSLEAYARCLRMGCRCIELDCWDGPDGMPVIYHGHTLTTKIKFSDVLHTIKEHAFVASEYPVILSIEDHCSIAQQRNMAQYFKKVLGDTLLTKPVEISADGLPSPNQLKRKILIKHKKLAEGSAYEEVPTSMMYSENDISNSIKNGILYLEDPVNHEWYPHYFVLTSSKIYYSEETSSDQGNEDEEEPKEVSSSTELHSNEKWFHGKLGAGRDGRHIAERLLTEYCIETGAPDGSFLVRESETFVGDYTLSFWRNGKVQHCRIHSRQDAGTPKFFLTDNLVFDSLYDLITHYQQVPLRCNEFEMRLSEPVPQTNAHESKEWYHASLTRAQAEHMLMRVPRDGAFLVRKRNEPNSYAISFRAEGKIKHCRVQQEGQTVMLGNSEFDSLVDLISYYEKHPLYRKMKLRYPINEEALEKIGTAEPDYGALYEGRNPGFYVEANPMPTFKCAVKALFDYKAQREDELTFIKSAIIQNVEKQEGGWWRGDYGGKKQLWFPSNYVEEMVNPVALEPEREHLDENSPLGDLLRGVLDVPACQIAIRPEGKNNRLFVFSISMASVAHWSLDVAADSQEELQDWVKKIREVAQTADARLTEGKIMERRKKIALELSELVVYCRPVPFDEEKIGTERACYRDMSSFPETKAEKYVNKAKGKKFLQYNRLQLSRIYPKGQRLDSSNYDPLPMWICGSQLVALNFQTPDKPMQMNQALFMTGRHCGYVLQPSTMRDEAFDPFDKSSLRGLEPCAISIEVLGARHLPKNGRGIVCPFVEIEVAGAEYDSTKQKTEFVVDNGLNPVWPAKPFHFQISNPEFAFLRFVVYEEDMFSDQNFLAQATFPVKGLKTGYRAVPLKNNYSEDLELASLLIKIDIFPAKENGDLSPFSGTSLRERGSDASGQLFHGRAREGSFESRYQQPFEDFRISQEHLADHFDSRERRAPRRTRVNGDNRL
# Chain of UniProt P27986 (P27986 2-724): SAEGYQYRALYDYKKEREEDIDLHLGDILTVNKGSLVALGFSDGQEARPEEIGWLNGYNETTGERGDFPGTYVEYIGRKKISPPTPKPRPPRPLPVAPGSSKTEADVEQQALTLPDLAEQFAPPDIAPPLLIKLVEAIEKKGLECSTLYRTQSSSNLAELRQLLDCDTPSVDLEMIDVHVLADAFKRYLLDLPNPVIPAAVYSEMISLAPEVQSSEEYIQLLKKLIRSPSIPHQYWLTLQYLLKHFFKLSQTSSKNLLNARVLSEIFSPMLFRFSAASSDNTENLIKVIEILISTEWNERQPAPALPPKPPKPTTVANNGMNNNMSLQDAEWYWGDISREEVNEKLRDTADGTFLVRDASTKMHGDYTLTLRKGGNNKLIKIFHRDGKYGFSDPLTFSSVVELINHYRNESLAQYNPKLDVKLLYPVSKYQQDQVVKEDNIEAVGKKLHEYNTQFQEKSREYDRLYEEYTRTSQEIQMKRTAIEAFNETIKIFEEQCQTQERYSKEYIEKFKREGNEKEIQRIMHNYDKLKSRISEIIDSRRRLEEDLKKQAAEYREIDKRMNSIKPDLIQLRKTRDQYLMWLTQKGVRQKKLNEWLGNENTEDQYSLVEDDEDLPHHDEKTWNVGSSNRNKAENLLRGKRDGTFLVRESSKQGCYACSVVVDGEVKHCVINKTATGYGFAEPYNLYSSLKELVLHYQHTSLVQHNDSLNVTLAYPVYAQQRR
# Chain of UniProt P06748 (P06748 whole entry): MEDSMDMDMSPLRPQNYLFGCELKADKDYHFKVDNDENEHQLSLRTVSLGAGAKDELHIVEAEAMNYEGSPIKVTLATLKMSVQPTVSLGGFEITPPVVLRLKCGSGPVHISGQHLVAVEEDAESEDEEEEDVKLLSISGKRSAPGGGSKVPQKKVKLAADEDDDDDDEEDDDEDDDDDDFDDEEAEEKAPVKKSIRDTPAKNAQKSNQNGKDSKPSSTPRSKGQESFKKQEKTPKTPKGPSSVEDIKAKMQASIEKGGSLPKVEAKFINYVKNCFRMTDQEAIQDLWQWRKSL
percentage of the total cellular amount of the substrate bound to NPM/ALK [1],stoichiometry of the association (ratio) (ratio NPM/ALK:NPM) [2],percentage of the total cell pool of NPM/ALK bound to the substrate [3],percentage of the total cell pool of NPM/ALK bound to the substrate [4],percentage of the total cell pool of NPM/ALK bound to the substrate [5],Substance
10%,,,,,Src homologous and collagen (SHC) protein (from UniProt P29353 1-473)
1%,,,,,phospholipase-Cγ (PLC-γ) (from UniProt P19174 2-1290) (enzyme)
,1,< 5%,< 5%,< 5%,NPM/ALK fusion protein (enzyme)
1%,,,,,85 kDa subunit of phosphatidylinositol 3-kinase (PI3-K) (from UniProt P27986 2-724)
